Reference: the supplement of paper PMC9732359
± gives the uncertainty stated by the source.

Assay: protein stability index of a GFP-peptide fusion (yeast GPS) (PSI 1-4); higher = more stable; sorted into four equal gates, so the index is relative within each strain
Outline: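 Mid-log yeast cultures in leucine-free medium, carrying a pooled plasmid library, were sorted into four equal gates by their GFP/Cherry fluorescence ratio. Each plasmid expressed Cherry along with GFP fused upstream of a tiled 17-residue yeast protein peptide. Plasmids recovered from each gate were PCR-amplified and Illumina-sequenced, with reads assigned to strains by barcodes. The protein stability index was obtained by summing each gate's read frequency weighted by its gate number.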

Row | Sequence | protein stability index (doa10∆) | protein stability index (pdr5∆) | protein stability index (san1∆) | protein stability index (ubr1∆)
1 | PYPKSRYNRAVPDSKIR [RPL10] | 3.03 ± 0.049 | 3.19 ± 0.052 | 3.05 ± 0.043 | 3.04 ± 0.048
2 | DNVNSTTGSIFEKDLMA [BRN1] | 2.98 ± 0.067 | 3.01 ± 0.068 | 3.07 ± 0.071 | 2.99 ± 0.041
3 | FISSNDAFNMLSLTTVP [SNF6] | 1.7 ± 0.054 | 2.44 ± 0.063 | 2.31 ± 0.11 | 2 ± 0.06
4 | DSRTTTGAYIANRVTDK [PRE3] | 2.99 ± 0.13 | 3.29 ± 0.11 | 2.89 ± 0.11 | 3.08 ± 0.082
5 | EFTENELNVDSMDVDDK [ITC1] | 3.18 ± 0.16 | 3.24 ± 0.19 | 3.31 ± 0.11 | 3.25 ± 0.093
6 | PFETFDHASIRRGYQVY [CYT1] | 2.68 ± 0.048 | 2.65 ± 0.044 | 2.82 ± 0.047 | 2.9 ± 0.032
7 | WGEQKKAMSSRAGVSQV [RPB2] | 3.27 ± 0.12 | 3.17 ± 0.099 | 3.25 ± 0.071 | 3.32 ± 0.05
8 | NNVAYGKKRFRVVTVDG [SMC4] | 1.93 ± 0.11 | 2.1 ± 0.13 | 1.78 ± 0.13 | 1.83 ± 0.069
9 | LVTCEGSEEKAFVPKKR [SRP54] | 2.19 ± 0.12 | 1.85 ± 0.11 | 1.62 ± 0.13 | 1.61 ± 0.066
10 | VLDKMHARARGPRAVLT [RET1] | 2.88 ± 0.11 | 3.22 ± 0.11 | 3.15 ± 0.067 | 3.09 ± 0.087
11 | KSLVQYIELLPNADDIR [DIS3] | 2.7 ± 0.15 | 2.75 ± 0.077 | 2.47 ± 0.069 | 2.62 ± 0.064
12 | FYRGNYTDFENTFQKTV [FAS1] | 2.41 ± 0.074 | 2.63 ± 0.062 | 2.34 ± 0.1 | 2.67 ± 0.056
13 | VMFATNRPNTLDPALLR [RPT1] | 2.81 ± 0.075 | 3.05 ± 0.079 | 2.9 ± 0.062 | 2.91 ± 0.073
14 | LPRCSKEEFRLMISPKD [RRI2] | 1.77 ± 0.056 | 1.88 ± 0.063 | 1.58 ± 0.16 | 1.67 ± 0.044
15 | TTPVKLGPGIYCDPNTQ [RRP40] | 2.65 ± 0.077 | 2.2 ± 0.076 | 2.74 ± 0.06 | 2.35 ± 0.05
16 | TSIGIKCNDGVVFAVEK [PRE10] |  |  | 2.61 ± 0.29 | 
17 | QENSSKIITLDLSNYAE [SMC1] | 3.13 ± 0.1 | 3.34 ± 0.053 | 3.1 ± 0.054 | 3.13 ± 0.044
18 | ENGIEVELLDSNDRVNP [ITC1] | 3.56 ± 0.078 | 3.2 ± 0.11 | 3.29 ± 0.062 | 3.19 ± 0.061
19 | RRLPEDESYARAYRIIR [QCR7] | 2.81 ± 0.056 | 2.72 ± 0.061 | 2.53 ± 0.043 | 2.42 ± 0.043
20 | EKGSWEQLSPQDVLQML [BRR2] | 3.05 ± 0.12 | 3.27 ± 0.15 | 3.42 ± 0.12 | 3.03 ± 0.088
21 | RENVFFQSQQRRKDTSM [RPB9] | 3.07 ± 0.083 | 3.4 ± 0.11 | 3.34 ± 0.065 | 2.75 ± 0.15
22 | GEKTLSSLALVFALHKY [SMC4] | 2.57 ± 0.054 | 2.48 ± 0.066 | 1.9 ± 0.12 | 2.98 ± 0.051
23 | QEPELSLDQGDAEEDSQ [SMC4] | 3.45 ± 0.16 |  |  | 3.02 ± 0.14
24 | NVFHGLCAGANNPKIQT [IRR1] | 1.59 ± 0.062 | 1.97 ± 0.077 | 1.48 ± 0.086 | 1.56 ± 0.073
25 | FVKFITYLTQEILILIN [SIN4] | 2.02 ± 0.05 | 1.7 ± 0.044 | 1.57 ± 0.069 | 1.59 ± 0.042
26 | GVHDGEVEPALLLLQDY [RPN1] | 3.13 ± 0.2 | 3.46 ± 0.17 |  | 2.44 ± 0.24
27 | FVSESPSFVKSGKLRDY [ISW2] | 2.41 ± 0.059 | 2.11 ± 0.051 | 2.28 ± 0.049 | 2.7 ± 0.044

Row | Sequence | protein stability index (doa10∆) | protein stability index (pdr5∆) | protein stability index (san1∆) | protein stability index (ubr1∆)
28 | KFIALCEQQPSQEREFS [SIN4] | 2.78 ± 0.055 | 2.82 ± 0.063 | 2.67 ± 0.088 | 2.79 ± 0.056
29 | SLNSMTNAKLPNVDLVT [RGR1] | 2.53 ± 0.087 | 2.74 ± 0.064 | 2.52 ± 0.061 | 2.46 ± 0.041
30 | AKWAPTLRTISFKGSPN [SNF2] | 3.02 ± 0.16 | 3.11 ± 0.27 | 2.77 ± 0.15 | 2.51 ± 0.14
31 | ETEEIDPELLRSYIFGG [RPL5] | 3.22 ± 0.073 | 3.44 ± 0.082 | 3.3 ± 0.046 | 3.23 ± 0.075
32 | RLTGSLLAHKVADEEAN [RPC37] | 1.22 ± 0.057 | 1.32 ± 0.068 | 1.16 ± 0.12 | 1.06 ± 0.056
33 | QEQYQTNTFEGSGNNNE [SNU114] |  | 3.59 ± 0.23 | 3.3 ± 0.13 | 
34 | KRRKTHIHKHVKDEAFD [RET1] | 2.87 ± 0.11 | 3.23 ± 0.12 | 2.92 ± 0.095 | 3.1 ± 0.1
35 | YRSHIFATNEERQMNFL [SWI3] | 3.24 ± 0.091 | 2.69 ± 0.081 | 2.59 ± 0.081 | 2.72 ± 0.051
36 | PQAVTITSIMDDLALPY [ITC1] | 2.85 ± 0.077 | 2.98 ± 0.062 | 2.72 ± 0.059 | 3.02 ± 0.046
37 | NQNICTSVTRRSPVFAL [GRR1] | 1.43 ± 0.039 | 1.6 ± 0.037 | 1.5 ± 0.058 | 1.74 ± 0.031
38 | WKIPQNDIPQTESPLKT [SSN2] | 2.71 ± 0.082 | 2.23 ± 0.058 | 2.13 ± 0.08 | 2.38 ± 0.039
39 | NTLVRPNGTKKAYVRLT [RPL25] |  |  | 3.03 ± 0.17 | 3.35 ± 0.15
40 | QFQKARNNVMLLIATNL [SRB8] | 1.74 ± 0.11 | 1.81 ± 0.1 | 2.24 ± 0.13 | 1.93 ± 0.071
41 | EKTMMTFGKPEEEDSIL [YCS4] | 3.27 ± 0.15 | 3.37 ± 0.14 | 3.35 ± 0.063 | 3.27 ± 0.088
42 | LINLAKTRVGSVTAQVY [RPC82] | 2.41 ± 0.096 | 1.66 ± 0.065 | 1.16 ± 0.18 | 1.45 ± 0.11
43 | PLVYRHELITNIGETAG [RPB9] | 2.78 ± 0.046 | 2.88 ± 0.035 | 3.04 ± 0.042 | 3.02 ± 0.036
44 | DELELEDAIHIALLTLK [PRE8] | 3.04 ± 0.076 | 3.11 ± 0.065 | 3.07 ± 0.062 | 3.15 ± 0.087
45 | TRIFQALPRKLRRRTAS [POP1] | 2.33 ± 0.07 | 3.23 ± 0.11 | 2.68 ± 0.14 | 2.73 ± 0.074
46 | PLVIRRYLPDGSFEDWS [RPO26] | 3.43 ± 0.18 | 3.27 ± 0.18 | 3.44 ± 0.068 | 
47 | GVTSLIKNLGLPSDRCS [RPP1] | 2.29 ± 0.068 | 2.26 ± 0.072 | 1.5 ± 0.12 | 1.69 ± 0.062
48 | LESEIASSSAKLIEKKS [SMC2] | 2.69 ± 0.072 | 3.03 ± 0.058 | 3.08 ± 0.04 | 3 ± 0.055
49 | FQHILRLLNTNVDGNIK [RPS18A] | 2.87 ± 0.05 | 2.95 ± 0.064 | 2.83 ± 0.045 | 2.59 ± 0.043
50 | GEIEIKPNEEEELGFWD [RPN13] | 3.15 ± 0.13 | 3.19 ± 0.097 | 3.25 ± 0.074 | 3.24 ± 0.094
51 | ATESIKNRRRIHGELKT [SMC1] | 2.83 ± 0.17 | 3.09 ± 0.12 | 2.28 ± 0.26 | 2.61 ± 0.14
52 | EDFPIDTWANGETIKSN [SEM1] | 3.55 ± 0.14 | 3.61 ± 0.19 | 3.13 ± 0.2 | 3.15 ± 0.15
53 | QNKEIKAERVEDQKVVD [RPL6A] | 3.4 ± 0.067 | 3.44 ± 0.066 | 3.33 ± 0.041 | 3.35 ± 0.052
